Patent US20210054078A1
Changes are numbered by the printed parent chain.

B1: 1G1.D8 scFv phage clone (scFv, part only; not given: scFv linker, part only)
scFv, part: QVQLVESGGGLVQPGRSLRLSCAASGFTFDDYAMHWVRQAPGKGLEWVSGISWNSGSIGYADSVKGRFTISRDNAKNSLYLQMNSLRAEDTAVYYCAKPRDISSWLGMDVWGQGTTVTVSSDIQMTQSPSSVSASVGDRVTITCRASQDISSWLAWYQQKPGKAPKLLIYAASSLQSGVPSRFSGSGSGTDFTLTISSLQPEDSATYYCQQTTNFPYTFGQGTKLEIKR
B2: ME4 scFv phage clone (scFv, V domains shown, part only)
VH: QVQLVESGAEVKKPGSSVKVSCKASGGTFNNYAVSWVRQAPGQGLEWMGRIIPILGIANYAQTFQGRVTITADKSTTTAYMELSSLRSEDTAVYYCARSYSGYAEGAFDIWGQGTMVTVSS
VL: QFVLTQPPSVSGAPGQRVTISCTGSSSNIGAGYDVHWYQQLPGTAPKVLIYGNSDRPSGVPDRFSGSKSGTSASLAITGLQGEDKATYYCQSYDSRLSGPVFGTGTKVTVLG
modifications: scFv linker not given; phage display
B3: ME4.A2 scFv phage clone (scFv, V domains shown, part only)
VH: B2 VH with Y100S, S101R, E105H
VL: B2 VL
modifications: scFv linker not given
B4: ME4.A12 scFv phage clone (scFv, V domains shown, part only)
VH: B2 VH with Y100H, S101W, E105H
VL: B2 VL
modifications: scFv linker not given
B5: ME4.B12 scFv phage clone (scFv, V domains shown, part only)
VH: B2 VH with Y100S, S101F, A104S, E105V
VL: B2 VL
modifications: scFv linker not given
B6: ME4.B10 scFv phage clone (scFv, V domains shown, part only)
VH: B2 VH with Y100A, S101R, E105H
VL: B2 VL
modifications: scFv linker not given
B7: ME4.A11 scFv phage clone (scFv, V domains shown, part only)
VH: B2 VH with Y100R, S101G, E105H
VL: B2 VL
modifications: scFv linker not given
B8: 1G1 scFv phage clone (scFv, V domains shown, part only)
VH: QVQLVESGGGLVQPGRSLRLSCAASGFTFDDYAMHWVRQAPGKGLEWVSGISWNSGSIGYADSVKGRFTISRDNAKNSLYLQMNSLRAEDTAVYYCAKPRDISSWLGMDVWGQGTTVTVSS
VL: DIQMTQSPSSVSASVGDRVTITCRASQDISSWLAWYQQKPGKAPKLLIYAASSLQSGVPSRFSGSGSGTDFTLTISSLQPEDSATYYCQQTNNFPYTFGQGTKLEIKR
modifications: scFv linker not given; phage display
B9: 1G1.E12 scFv phage clone (scFv, V domains shown, part only)
VH: B8 VH
VL: B8 VL with N92V, N93T
modifications: scFv linker not given

Key:
[1] = biological target: human PD-L1 (soluble protein of the kinetic measurements) (human) (UniProt Q9NZQ7); assay: dissociation rate constant of scFv phage clone, method not named
Chain of human PD-L1 (soluble protein of the kinetic measurements) (human) (Q9NZQ7 19-238 limits assumed): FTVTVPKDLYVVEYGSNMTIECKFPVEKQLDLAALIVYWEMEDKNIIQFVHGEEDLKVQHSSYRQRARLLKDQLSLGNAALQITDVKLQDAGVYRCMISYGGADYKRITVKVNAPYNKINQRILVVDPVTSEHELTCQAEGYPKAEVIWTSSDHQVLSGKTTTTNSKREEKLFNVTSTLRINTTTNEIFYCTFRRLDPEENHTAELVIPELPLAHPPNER

[2] = biological target: mouse PD-L1 (soluble protein of the kinetic measurements) (mouse) (UniProt Q9EP73); assay: as above
Chain of mouse PD-L1 (soluble protein of the kinetic measurements) (mouse) (Q9EP73 19-238 limits assumed): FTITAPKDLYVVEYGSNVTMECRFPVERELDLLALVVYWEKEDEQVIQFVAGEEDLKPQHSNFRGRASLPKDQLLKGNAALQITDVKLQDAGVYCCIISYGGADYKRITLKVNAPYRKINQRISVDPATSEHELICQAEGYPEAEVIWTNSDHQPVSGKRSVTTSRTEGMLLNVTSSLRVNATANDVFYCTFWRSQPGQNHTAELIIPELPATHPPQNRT

[3] = biological target: Mouse PD-L1-HisTag (#50010-M08H, Sino Biological Inc.) (mouse) (UniProt Q9EP73); assay: ELISA, scFv phage supernatant on coated His-tag PD-L1, anti-M13-HRP
Chain of Mouse PD-L1-HisTag (#50010-M08H, Sino Biological Inc.) (mouse) (Q9EP73 19-238 limits assumed, stated change not applied): as the sequence (Q9EP73 19-238 limits assumed) above

[4] = biological target: Human PD-L1-HisTag (#10084-H08H, Sino Biological Inc.) (human) (UniProt Q9NZQ7); assay: as above
Chain of Human PD-L1-HisTag (#10084-H08H, Sino Biological Inc.) (human) (Q9NZQ7 19-238 limits assumed): as the sequence (Q9NZQ7 19-238 limits assumed) above

[5] = biological target: human PD-L1 on hPD-L1/CHO-K1 overexpressing cells (human) (UniProt Q9NZQ7); assay: flow cytometry, scFv phage supernatant on hPD-L1/CHO-K1 cells
Chain of human PD-L1 on hPD-L1/CHO-K1 overexpressing cells (human) (Q9NZQ7 19-290): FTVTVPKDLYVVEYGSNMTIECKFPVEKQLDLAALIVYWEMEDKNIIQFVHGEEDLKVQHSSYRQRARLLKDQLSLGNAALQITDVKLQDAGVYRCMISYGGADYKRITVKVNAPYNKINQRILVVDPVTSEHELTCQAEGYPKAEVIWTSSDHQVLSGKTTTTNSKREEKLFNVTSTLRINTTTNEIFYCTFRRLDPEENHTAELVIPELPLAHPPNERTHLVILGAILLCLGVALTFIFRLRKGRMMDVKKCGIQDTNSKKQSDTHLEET

Row | Binder | koff [1] | koff [2] | also measured
1 | B1 | 0.000242 s⁻¹ | – | –
2 | B2 | 0.000186 s⁻¹ | 0.000374 s⁻¹ | OD450-630 [3]: 1.44; OD450-630 [4]: 1.66
3 | B3 | 0.000183 s⁻¹ | 0.000852 s⁻¹ | –
4 | B4 | < 1e-07 s⁻¹ | 0.00101 s⁻¹ | –
5 | B5 | 0.000177 s⁻¹ | 0.000753 s⁻¹ | –
6 | B6 | 0.00016 s⁻¹ | 0.000467 s⁻¹ | –
7 | B7 | 7.86e-05 s⁻¹ | 0.000486 s⁻¹ | –
8 | B8 | 0.000152 s⁻¹ | – | OD450-630 [3]: 0.35; OD450-630 [4]: 1.38; % Gated in M1 [5]: 99.4%; Geo Mean in M1 [5]: 184; Geo Mean, all events [5]: 181; Mean in M1 [5]: 248; Mean, all events [5]: 246
9 | B9 | 0.000268 s⁻¹ | – | –
